Here are results for three molecules from patent CN111995685A (SHANGHAI INST MATERIA MEDICA CAS; UNIV XIAMEN, dated 2020).

The target in assay [1] is T1, 抗原人源PD-1蛋白 (human, UniProt Q15116 25-167, limits assumed).
T1 construct: The construct is not described; also called 抗原PD-1; 抗原PD-1蛋白
Kind of assay: ELISA (binding and PD-L1 blocking) and BLI with PD-1 antigen, IgG format. (In general: An ELISA detects its analyte on a solid surface through an enzyme-linked reagent.)

In assay [2] the target is T1, 抗原人源PD-1蛋白. Description: ELISA of humanised Fab phage clones on PD-1 antigen.

T1 sequence (Q15116 25-167 limits assumed): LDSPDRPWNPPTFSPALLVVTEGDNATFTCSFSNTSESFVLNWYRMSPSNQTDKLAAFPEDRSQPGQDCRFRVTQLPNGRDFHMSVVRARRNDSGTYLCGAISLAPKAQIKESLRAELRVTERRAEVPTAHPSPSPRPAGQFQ

B1: T82# (antibody, V domains shown)
VH: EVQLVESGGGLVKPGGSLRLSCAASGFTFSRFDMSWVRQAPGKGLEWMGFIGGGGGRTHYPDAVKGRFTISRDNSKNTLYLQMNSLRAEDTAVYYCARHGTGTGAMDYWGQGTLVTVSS
VL: DIQMTQSPSTLSASVGDRVTISCRASKSVDNYGYSFMHWYQQKPGQAPRLLIYRSANLASGVPDRFSGSGSGTDFTLTISSLQAEDVAVYYCQQSNEDPTFGGGTKLEIK
notes: also called 抗PD-1单抗T82#
In the case of B1, the binding result with 抗原人源PD-1蛋白 [1] is reported as “binds”.

B2: T1# (antibody, V domains shown)
VH: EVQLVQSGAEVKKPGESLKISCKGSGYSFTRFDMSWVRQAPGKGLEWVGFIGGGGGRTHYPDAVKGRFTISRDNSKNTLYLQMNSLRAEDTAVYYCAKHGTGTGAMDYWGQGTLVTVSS
VL: EIVLTQSPGTLSLSPGERATLSCRASKSVDNYGYSFMHWYQQKPGQAPRLLIYRSANLASGVPSRFSGSGSGTDFTLTINSLEAEDAATYYCQQSNEDPTFGGGTKVEIK
notes: also called 抗PD-1单抗T1#; 人源化PD-1抗体T1#
Regarding B2, the binding result with 抗原人源PD-1蛋白 [2] is “binds”.

B3: T16# (antibody, V domains shown)
VH: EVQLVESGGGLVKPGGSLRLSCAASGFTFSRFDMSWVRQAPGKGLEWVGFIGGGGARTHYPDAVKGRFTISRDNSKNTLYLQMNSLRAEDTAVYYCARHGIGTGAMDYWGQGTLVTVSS
VL: ETTLTQSPAFMSATPGDKVNISCRASKSVDNYGYSFMHWYQQKPGQAPRLLIYRSANLASGVPDRFSGSGSGTDFTLKISRVEAEDVGVYYCQQSNEDPTFGGGTKLEIK
notes: also called 抗PD-1单抗T16#
With B3, the binding result with 抗原人源PD-1蛋白 [1] was “binds”.
